Among the data in paper PMC8577781 are CXCL10 cleavage rate: GP63 in conditioned medium incubated with 1000 pg/mL CXCL10 for 2 hours, remaining CXCL10 measured by ELISA, rate by linear regression values, retold here.

The test deals with human recombinant CXCL10 (human) (UniProt P02778).
Sequence of UniProt P02778 (P02778 22-98): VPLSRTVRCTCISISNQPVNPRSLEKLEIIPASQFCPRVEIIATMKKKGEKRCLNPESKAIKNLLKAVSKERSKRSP
Regarding “L. (L.) major GP63 D463N mutant gp63^PYSNGS (from UniProt P08148 40-577) (enzyme)”, the CXCL10 cleavage rate: GP63 in conditioned medium incubated with 1000 pg/mL CXCL10 for 2 hours, remaining CXCL10 measured by ELISA, rate by linear regression turned out to be 1.16 pg/mL/min. Regarding “L. (L.) major GP63 triple mutant gp63^GYSNGA (from UniProt P08148 40-577) (enzyme)”, the CXCL10 cleavage rate: GP63 in conditioned medium incubated with 1000 pg/mL CXCL10 for 2 hours, remaining CXCL10 measured by ELISA, rate by linear regression was 0.14 pg/mL/min.

As for “L. (L.) major GP63 (glycoprotein-63), wild-type allele gp63^PYSDGS (from UniProt P08148 40-577) (enzyme)”, the CXCL10 cleavage rate: GP63 in conditioned medium incubated with 1000 pg/mL CXCL10 for 2 hours, remaining CXCL10 measured by ELISA, rate by linear regression came out at 6.07 pg/mL/min.
